Article doi:10.1101/2024.05.14.591795

Biological target: BCG3185c (Mycobacterium tuberculosis (title); called a Bacillus Calmette-Guérin (BCG) protein)
Assay: SEC

Substance: BCG3185c (enzyme)
- stoichiometry N: 3
